In patent US20100056445A1, “ADIPONECTIN FOR THE TREATMENT AND DIAGNOSIS OF ALBUMINURIA” (THOMAS JEFFERSON UNIVERSITY, priority 2006, published 2010):
“Also recorded” adds a separate entry of the source.

Legend:
podocyte monolayer = test: Albumin permeability across differentiated podocyte monolayer (Transwell); format: cell-based, mouse; conditions: adiponectin (globular or full length) 3 μg/ml, serum free, vs. control
Protocol: Podocyte cell culture: Conditionally immortalized mouse podocytes were kindly provided by Dr. Peter Mundel (Albert Einstein College of Medicine, Bronx, N.Y.) and were cultured as previously described (27). The cells harbor a temperature-sensitive variant of the SV40 large T antigen (tsA58) that is inducible by γ-interferon and stable at 33° C. but rapidly degraded at 37° C. (27). At 33° C., the large T antigen allows for cellular proliferation. The proliferating cells are maintained in collagen I—coated flasks in RPMI-1640 media supplemented with 10% FBS and 10 units/ml mouse recombinant γ-interferon. When the cells have reached confluence, they are passaged and allowed to differentiate at 37° C. for 8-10 days without γ-interferon in Dulbecco's modified Eagle's medium containing 5.5 mmol/l glucose and 5% FCS. For the permeability assay a modification of a previously published protocol (28) was adopted. Differentiated podocytes (0.2×10^6 podocytes/well) plated on collagen coated 24 well Transwell plates (Corning) were serum-starved ovenight when confluent. Cells were then modulated with globular adiponectin (PepROTech Inc.) with or without 1 mM adenosine 9-p-D-arabinofuranoside (ARA-A) (Sigma, St. Louis, Mo.), for 24 h. Cells were then washed twice with PBS supplemented with 1 mM MgCl2 and 1 mM CaCl2. The upper compartment was refilled with 0.25 ml RPMI 1640 alone and the lower compartment with 0.5 ml RPMI 1640 supplemented with 40 mg/ml BSA and incubated for 2 hour at 37° C. Total protein concentration in the upper compartment was determined using a Bio-Rad protein assay (Bio-Rad Laboratories, Hercules, Calif.).

AMPK = test: Glomerular AMPK activity (p-AMPKα immunostain) in adiponectin KO mouse kidney; format: in vivo; conditions: adiponectin KO mice, adiponectin (gAd) treatment
Protocol: Immunohistochemistry: Immunocytochemistry was performed as described previously (30). Differentiated podocytes seeded on coverslips were serum-Starved overnight and globular adiponectin was added. After 24 hours of adiponectin introduction, cells were fixed in 3.7% paraformaldehyde. Incubation with primary antibody p-AMPKα at 1:50 dilution (Cell Signaling Technology) was performed in blocking solution at 4° C. overnight Cells were then incubated with secondary anti rabbit IgG conjugated to an immunofluorescent dye (Alexa 594, Invitrogen, Carisbad, Calif.) for 30 minutes at room temperature. Nuclear stain was performed with Hoechst 33342 (Invitrogen). Fluorescence pictures were obtained using confocal laser fluorescence microscope (LSM-510, Carl Zeiss, Jena, Germany). Immunostaining of paraffin-embedded mouse kidney was performed as described previously (26) with p-AMPKα (Thr172) rabbit monoclonal antibody (31). Quantitation of p-AMPKα positive cells was performed on 50 glomeruli from 4 mice in each group.
Immunohistochemistry: Immunocytochemistry was performed as described previously (30). […] Fluorescence pictures were obtained using confocal laser fluorescence microscope (LSM-510, Carl Zeiss, Jena, Germany). […] Quantitation of p-AMPKa positive cells was performed on 50 glomeruli from 4 mice in each group. […] Images were captured by confocal laser fluorescence microscope.

B1: adiponectin: 30 kDa adipocyte-secreted protein; in the first series of tests the recombinant globular domain was used, later gAd or fAd (protein, UniProt Q15848 19-244, looked up)
Adiponectin: ETTTQGPGVLLPLPKGACTGWMAGIPGHPGHNGAPGRDGRDGTPGEKGEKGDPGLIGPKGDIGETGVPGAEGPRGFPGIQGRKGEPGEGAYVYRSAFSVGLETYVTIPNMPIRFTKIFYNQQNHYDGSTGKFHCNIPGLYYFAYHITVYMKDVKVSLFKKDKAMLFTYDQYQENNVDQASGSVLLHLEVGDQVWLQVYGEGERNGLYADNDNDSTFTGFLLYHDTN
For B1, the “Permeability of albumin across a podocyte monolayer” value (podocyte monolayer) was “reduced” and the “AMPK activity in glomerular podocytes (p-AMPKα positive cells per glomerulus)” value (AMPK) was “improved; also recorded: increased”.
